The source of these data is US20190247546A1, “METHOD FOR FORMING A FUNCTIONAL NETWORK OF HUMAN NEURONAL AND GLIAL CELLS” (LEIBNIZ-INSTITUT FÜR POLYMERFORSCHUNG DRESDEN E.V., priority 2016, published 2019).

“Also recorded” adds a separate entry of the source.

Data set [1] has as its system cells embedded in PEG-heparin hydrogel, transfected with calcium sensor. Kind of data set: Response to neurotransmitter glutamate, calcium sensor fluorescence in hydrogel-embedded cells. The note with it: after addition of glutamate. Format: cell-based, human. An excerpt:
FIG. 5 depicts the results of the measurement of the total fluorescence intensities in the case of addition of the neurotransmitter glutamate. […] The cells in image A2 are embedded in a PEG-heparin hydrogel system before the addition of the neurotransmitter glutamate. Images A3 and A4 show a high magnification of a Gcampf6-transfected cell which is embedded in the PEG-heparin hydrogel system.

Data set [2] deals with primary human cortical cells (PHCCs). Kind of data set: Effect of IL-4 on Aβ42 toxicity, PHCCs in star-PEG-HEP hydrogels. The data set is classed as cell-based. As to the method:
To test whether IL-4 acts in humans in a similar manner as could be previously shown in zebrafish investigations for example, the abovementioned star-PEG-HEP hydrogels containing PHCCs were used. To this end, hydrogels containing embedded PHCCs were prepared and they were incubated with Aβ42, as already described. Each test setup contained a positive (with Aβ42) and a negative control group (without Aβ42) as well as an experimental group with Aβ42 and IL-4. In the experimental group, the star-PEG-HEP gels containing embedded PHCCs were cultured with Aβ42 and, at the same time, in the presence of 100 ng/ml IL-4 in the medium. After a three-week culturing phase, the samples were fixed and immunologically stained with respect to GFAP and SOX2 in order to investigate effects of IL-4 on the neural stem and progenitor cells. The nucleus dye DAPI was used in order to show entire cells. […] It can be concluded that the treatment with interleukin 4 stimulates GFAP-positive cells in relation to proliferation to form more neuronal stem and progenitor cells. IL-4 thus increases the neuroplasticity of the embedded PHCCs despite the presence of neurotoxic Aβ42. […] IL-4 is thus an important candidate for future therapies against Aβ42-mediated neurodegeneration.

Data set [3] shares this test system. The experiment in a line: Aβ42 neurotoxicity model, PHCCs in 3D star-PEG-heparin hydrogel. The data set is classed as cell-based. How it is done:
FIG. 11 contains a graphic depiction of the preparation of the PEG-heparin hydrogel for the investigation of the effect of amyloid β 42 peptides (Aβ42) in primary human cortical cells. Cells of the second passage were placed into a Petri dish in a density of 5×10^3 per cm^2 in step 1. For the purposes of the Aβ42 neurotoxicity model, cells of the second passage were likewise placed in a Petri dish in a density of 5×10^3/cm^2 and incubated for 48 hours with 2 μM Aβ42 (step 1′).
After 48 hours, the cells were harvested and resuspended in phosphate-buffered saline solution (PBS) at a concentration of 8×10^6 cells per ml in a step 2. Then, the same volume of heparin solution (45 μg/μl in PBS) was added and the two were mixed to give a final concentration of 4×10^6 cells/ml in a step 3. In the case of the coating of the extracellular environment of the cells embedded in the PEG-heparin hydrogel system with […], a mixture of Aβ42 peptide in a concentration of 40 μM was added in step 3′.
To cast a gel, the cell solution, PBS and heparin in step 3 were mixed with the same volume of star-PEG. […] The reactions for gel formation last two minutes. After the casting, the gels were placed into 24-well culture plates, with each well containing a culture medium. To culture and to incubate the gels, a ratio of 5% CO2/95% air at 37° C. was used. Gels can be cultured until the desired time point.
Amyloid β 42 peptide, a misfolded protein relevant to Alzheimer's disease, was also used in order to model its toxicity and its effects on neuronal networks. The method according to the invention using a three-dimensional hydrogel system for culturing can, in this way, also be used as a model for neurodegenerative diseases. […] To investigate whether amyloid β 42 (Aβ42) influences the neuronal network, cultures were generated by treating the cells with Aβ42 before introduction into the hydrogel system (intracellular Aβ42) or incubating the hydrogels with Aβ42 before introduction of the cells (extracellular Aβ42). […] Furthermore, the three-dimensional hydrogel system can be used as a practical screening platform for testing compounds which might restore the neurogenic capacity of human stem cells and the formation of neuronal networks even in the presence of Aβ42.
To use gels which were pretreated with amyloid β 42 (Aβ42), the cells were incubated with 2 μM Aβ42 for 48 hours prior to the cell collection from the culture vessel and prior to the embedding of the cells in the hydrogel. To generate a gel environment which contains Aβ42, the cells were first dissolved in 4 μl of 100 μM Aβ42 peptide in PBS. 6 μl of the heparin solution (0.448 mg of HEP-HM6 dissolved in 6 μl of PBS) and 10 μl of the starPEG-MMP solution (0.347 mg of starPEG-MMP dissolved in 10 μl of PBS) were added and, as described above, mixed. In this gel mixture, the concentration of Aβ42 is 20 μM and the concentration of the cells is 2×10^6 cells per ml.
To use gels which were pretreated with amyloid β 42 (Aβ42), the cells were incubated with 2 μM Aβ42 for 48 hours prior to the cell collection from the culture vessel and prior to the embedding of the cells in the hydrogel.
All hydrogels were fixed with ice-cold paraformaldehyde and incubated at room temperature for 1.5 h, followed by a wash in PBS overnight at 4° C. […]
For the hydrogels, fluorescence recordings were carried out using a Leica SP5 inverted confocal and multiphoton microscope. […]

[4] abbreviates: Aβ42-treated gels compared with control gels.

In the case of `N[C@@H](CCC(=O)O)C(=O)O` [glutamate], in data set [1], the “fluorescence signal of calcium sensor (intracellular calcium influx)” value was “increased fluorescence signal; also recorded: increase in the intracellular calcium level”.

With “Aβ42: Amyloid β 42 peptide, a misfolded protein relevant to Alzheimer's disease”, in data set [2] (Aβ42-treated cultures vs untreated control, three-week culture), the “cell count (GFAP-positive and SOX2-positive cells)” value is given as “strong decline”. Further, in data set [3] (setting [4]), the “number of branches per network” value is given as “significantly lower”, the number of cells entry was “significantly reduced” and the number of networks result is on record as “significantly reduced”. Also, in data set [3] (Aβ42 treatment), the effect on axons result is given as “dystrophy of axons”. The neuronal network formation entry in data set [3] (intracellular and extracellular Aβ42, compared with control gels) is reported as “significant impairment”.

B1: IL-4: interleukin 4 (protein, UniProt P05112 25-153, looked up)
Interleukin-4: HKCDITLQEIIKTLNSLTEQKTLCTELTVTDIFAASKNTTEKETFCRAATVLRQFYSHHEKDTRCLGATAQQFHRHKQLIRFLKRLDRNLWGLAGLNSCPVKEANQSTLENFLERLKTIMREKYSKCSS
Turning to B1, the “proliferation of human neuronal stem cells” value in data set [2] (Aβ42 plus 100 ng/ml IL-4) is given as “activates the proliferation”. For the same molecule, the cell count result in data set [2] (Aβ42 plus 100 ng/ml IL-4 in the medium, three-week culture) is given as “altogether comparable with the control cultures without Aβ42 treatment”.
